Biological target: the molecule itself
Assay: AUC; sedimentation velocity; 30 µM unphosphorylated protein in 50 mM HEPES pH 7.5, 100 mM NaCl; 45,000 rpm; c(s) analysis with SEDFIT; monomer and dimer peaks

B1: MST4 kinase domain (residues 1-300), unphosphorylated (domain or fragment)
chain: not shown
notes: MST4 (mammalian Ste20-like kinase 4), human, residues 1-300 with the kinase domain, cloned from a Mammalian Gene Collection clone into pLIC-SGC1; Phosphorylation was removed with lambda-phosphatase; also called mammalian Ste20-like kinase 4; source: E. coli BL-21(DE3)-R3-pRARE2, purified (Ni-NTA, TEV cleavage, lambda-phosphatase, Superdex 200 SEC, MonoQ); not shown: His6, N-terminal, cleaved
stoichiometry N: 2

— publication PMC2920948, “Structural Comparison of Human Mammalian Ste20-Like Kinases” (PLoS ONE, 2010)
